Assay results published in patent US20240132559, “COMPOSITIONS AND METHODS FOR MODULATING MYC EXPRESSION” (FLAGSHIP PIONEERING INNOVATIONS V, INC., published 2024).

Molecular target: ZF9-MQ1 (synthetic)
Assay: cell_activity; MYC mRNA down-regulation in A549 and HCC95, 72 h
Conditions: tags: NLS, MQ1 DNA methyltransferase, HA

Sequence of ZF9-MQ1 (synthetic) (chain, as listed by the source): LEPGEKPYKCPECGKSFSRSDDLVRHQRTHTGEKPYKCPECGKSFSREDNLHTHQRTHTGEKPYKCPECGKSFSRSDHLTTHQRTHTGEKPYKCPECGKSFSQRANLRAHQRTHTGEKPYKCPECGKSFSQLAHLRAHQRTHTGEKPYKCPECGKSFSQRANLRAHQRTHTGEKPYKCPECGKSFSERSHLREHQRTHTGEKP

B1: ZF9 target site in MYC promoter (dsDNA)
DNA 1: AGCAAAAGAAAATGGTAGGCG
DNA 2: CGCCTACCATTTTCTTTTGCT
  EC50: 0.08 ug/ml LNP/mRNA
